From US20220041738A1 (SAITAMA MEDICAL UNIVERSITY, published 2022)

What was measured:
Assay in all cases: immunofluorescence (legend of FIG. 4)
[1] = target: T1, human ALK2-R375P on cells (human, UniProt Q04771 21-509)
T1 sequence: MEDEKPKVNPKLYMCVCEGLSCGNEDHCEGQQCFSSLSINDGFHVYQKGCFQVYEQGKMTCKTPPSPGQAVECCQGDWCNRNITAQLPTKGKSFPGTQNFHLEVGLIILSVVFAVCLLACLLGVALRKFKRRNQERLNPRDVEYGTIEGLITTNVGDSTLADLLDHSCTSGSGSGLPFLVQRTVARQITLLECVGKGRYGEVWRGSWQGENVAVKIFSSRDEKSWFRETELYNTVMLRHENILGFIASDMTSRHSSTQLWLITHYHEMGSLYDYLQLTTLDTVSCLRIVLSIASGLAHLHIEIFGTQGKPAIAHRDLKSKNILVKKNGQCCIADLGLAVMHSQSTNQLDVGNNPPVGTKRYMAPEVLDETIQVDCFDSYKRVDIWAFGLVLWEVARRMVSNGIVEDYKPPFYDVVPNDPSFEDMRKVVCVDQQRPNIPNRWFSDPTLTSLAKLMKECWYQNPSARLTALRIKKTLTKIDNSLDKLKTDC
Description: (§1) Mouse C2C12 cells were seeded into a 96-well plate (Greiner Bio-One) at 0.5×10³ cells/well, and cultured in 15% FBS-containing DMEM medium overnight under the conditions of 5% CO₂ at 37° C. On the following day, the C2C12 cells were transfected with each of a wild-type human ALK2 cDNA integrated into pcDEF3; pcDEF3/human ALK2-L196P, pcDEF3/human ALK2-P197_F198delinsL, pcDEF3/human ALK2-R202I, pcDEF3/human ALK2-R206H, pcDEF3/human ALK2-Q207E, pcDEF3/human ALK2-R258S, pcDEF3/human ALK2-G325A, pcDEF3/human ALK2-G328E, pcDEF3/human ALK2-G328R, pcDEF3/human ALK2-G328W, pcDEF3/human ALK2-G356D, and pcDEF3/human ALK2-R375P, which are variants identified in FOP; and pcDEF3 as a control, using Lipofectamine 2000 (Invitrogen), and further cultured overnight.
(§2) The C2C12 cells were fixed with 10% neutral formalin (Nacalai Tesque, Japan) for 20 minutes at room temperature, and then blocked with 10% goat normal serum for 30 minutes. After the blocking agent was removed, purified IgG diluted to 10 μg/mL with the blocking agent was added, and the cells were left for 1 hour at room temperature. After the cells were washed with PBS three times, Goat Alexa 594-conjugated anti-rat IgG (Invitrogen) diluted to 1:1000 with the blocking agent was added, and the cells were left for 1 hour at room temperature. After the cells were washed with PBS three times, the cells were fixed with 10% neutral formalin for 15 minutes at room temperature, and nuclear-stained with DAPI (LifeTechnologies). Fluorescent signals were analyzed with a fluorescence microscope BZ-9000 (Keyence).

[2] = target: T2, human ALK2-R206H on cells (human, UniProt Q04771 21-509)
T2 sequence: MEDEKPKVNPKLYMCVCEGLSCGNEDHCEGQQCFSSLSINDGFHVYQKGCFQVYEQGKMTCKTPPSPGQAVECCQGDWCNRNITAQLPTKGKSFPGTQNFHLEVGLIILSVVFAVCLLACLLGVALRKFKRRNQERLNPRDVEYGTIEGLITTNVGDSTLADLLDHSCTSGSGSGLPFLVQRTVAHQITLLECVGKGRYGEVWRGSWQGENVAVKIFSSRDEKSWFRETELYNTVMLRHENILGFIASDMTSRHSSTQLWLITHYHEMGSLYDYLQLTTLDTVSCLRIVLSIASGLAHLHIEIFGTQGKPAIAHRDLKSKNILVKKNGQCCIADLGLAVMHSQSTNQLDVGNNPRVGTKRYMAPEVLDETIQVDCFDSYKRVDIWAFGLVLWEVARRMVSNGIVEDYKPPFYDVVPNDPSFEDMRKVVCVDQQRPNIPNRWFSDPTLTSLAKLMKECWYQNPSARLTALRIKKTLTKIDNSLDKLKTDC
Description: as §1, §2

[3] = target: T3, human ALK2-P197_F198delinsL on cells (human, UniProt Q04771 21-509)
T3 construct: also called delP197_F198insL
T3 sequence: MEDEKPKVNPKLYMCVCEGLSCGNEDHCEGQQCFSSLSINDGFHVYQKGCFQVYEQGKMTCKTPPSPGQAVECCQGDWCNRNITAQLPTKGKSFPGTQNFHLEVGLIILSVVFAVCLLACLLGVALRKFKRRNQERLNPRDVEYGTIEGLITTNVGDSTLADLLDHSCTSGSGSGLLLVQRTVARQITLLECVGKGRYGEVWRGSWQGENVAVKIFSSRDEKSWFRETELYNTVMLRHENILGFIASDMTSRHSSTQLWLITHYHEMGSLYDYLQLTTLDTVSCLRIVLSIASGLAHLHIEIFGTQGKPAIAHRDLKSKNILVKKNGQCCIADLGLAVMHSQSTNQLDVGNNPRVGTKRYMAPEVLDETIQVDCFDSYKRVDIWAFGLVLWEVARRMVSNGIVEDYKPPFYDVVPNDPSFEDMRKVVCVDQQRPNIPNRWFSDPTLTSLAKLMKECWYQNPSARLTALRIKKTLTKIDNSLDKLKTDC
Description: as §1, §2

[4] = target: T4, human ALK2-G356D on cells (human, UniProt Q04771 21-509)
T4 sequence: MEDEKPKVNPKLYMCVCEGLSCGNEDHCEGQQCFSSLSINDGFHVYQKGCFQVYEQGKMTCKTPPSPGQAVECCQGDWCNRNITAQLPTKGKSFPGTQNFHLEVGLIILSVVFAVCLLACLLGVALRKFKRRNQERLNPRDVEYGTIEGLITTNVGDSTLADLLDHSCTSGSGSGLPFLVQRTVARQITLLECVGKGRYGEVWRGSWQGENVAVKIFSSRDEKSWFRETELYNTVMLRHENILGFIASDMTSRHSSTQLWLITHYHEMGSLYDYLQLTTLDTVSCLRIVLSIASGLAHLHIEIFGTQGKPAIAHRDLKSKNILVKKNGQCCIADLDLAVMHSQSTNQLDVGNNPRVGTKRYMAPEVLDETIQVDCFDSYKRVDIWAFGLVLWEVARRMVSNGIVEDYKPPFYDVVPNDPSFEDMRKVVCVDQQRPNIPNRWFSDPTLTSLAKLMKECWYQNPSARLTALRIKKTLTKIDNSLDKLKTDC
Description: as §1, §2

Measured: binding result

B1: rat anti-ALK2 monoclonal antibody A2-15A (antibody, V domains shown)
VH: EVQLVESGGGLVQPGRSLKLSCAASGFTFSHYYMAWVRQAPTKGLEWVASITNSGGSINYRDSVKGRFTISRDNAKSTLYLQMDSLRSEDTATYYCTREGGENYGGYPPFAYWGQGTLVTVSS
VL: DIVLTQSPALAVSLGQRATISCRANQGVSLSRYNLMHWYQQKPGQKPKLLIYRSSNLASGIPARFSGSGSGTDFTLTINPVQADDIATYYCQQSRESPFTFGAGTKLELKR
notes: Rat monoclonal IgG from a hybridoma; also called 15A6
binds: all assays above

B2: rat anti-ALK2 monoclonal antibody A2-11E (antibody, V domains shown)
VH: EVQLVETGGGLVQPGRSLKLSCVASGFTFSNYYMYWIRQAPGKGLEWISSINTDGGSTYYPDSVKGRFAISRDNAENTVYLQMNSLRSEDTATYYCAKSTPNIPLAYWGQGTLVTVSS
VL: DIQMTQSPSLLSASVGDRVTLSCKASQNIYKYLNWFQQKLGEAPKLLIYYSNSLQTGIPSRFSGSGSGTDFTLTISSLQPEDVAIYFCFQYSSGPTFGPGTKLELKR
notes: Rat monoclonal IgG from a hybridoma; also called 11E2
binds: all assays above
